system: c-Src; experiment: phosphorylation enrichment, bacterial display (enrichment ratio); higher = better substrate or ligand; peptides without Tyr show the background
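Note: 11-residue human phosphosite peptides and single-mutation variants displayed on the E. coli surface, counted by deep sequencing, each peptide's frequency after selection divided by its frequency in the unselected input library; frequency after pTyr selection over input frequency; kinase dosed for 20-30% of maximal phosphorylation in three min.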

| Sequence | phosphorylation enrichment |
| --- | --- |
| RHPEVYHHLGI [NVL_Y290_V295I] | 0.621 |
| IQKKFYRAILE [CHD7_Y1218_YF] | 0.414 |
| KNRDVYSSDFF [USP24_Y2134_YF] | 0.952 |
| KQRKEYMHRRQ [IQGAP2_Y710] | 0.518 |
| NTYENYWPFYQ [GATM_Y103_K102N] | 7.27 |
| ISRLKYPVSQQ [BTK_Y375] | 0.342 |
| PGNIVYSSLCG [BCOR_Y90] | 5.73 |
| PNRILYRDFRQ [MYH7_Y715_G716R] | 0.485 |
| PQIVNYSPDCI [LDHB_Y128_K127N] | 0.387 |
| GNLLIYTEFGN [HGD_Y166_K171N] | 4.74 |
| LIGRRCDDPEV [HSPA9_Y128_Y128C] | 0.722 |
| DRSSLYLVAGP [KIAA1614_Y1083_N1078D] | 0.749 |
| NTILLYHIMAW [GPR143_Y157_S152N] | 1.27 |
| PHQTIYGALMI [FGF23_Y70_S71G] | 5.96 |
| IHFAIYFLKYS [ARMC9_Y107_L108F] | 0.585 |
| EQKKYYNAVKK [SCN5A_Y1495_M1498V] | 0.476 |
| NIWDSYTTNKV [GNB1_Y85_I80N] | 0.437 |
| PQAVTYATVKH [LILRB4_Y360_K362T] | 2.83 |
| KPGVNYFFQVS | 0.408 |
| ISDNAYQFMLT [MYH7_Y162_YF] | 0.807 |
| LFVDVYGPSVP [NUBPL_Y109_D105Y_YF] | 1.47 |
| KNEVLYDEENH [ARFGEF1_Y314_G316E] | 0.582 |
| RESFKYLPSSL [CXXC1_Y218_F219L_YF] | 0.429 |
| HCEDGYPGGSD [CTNND1_Y221_Y217C] | 0.514 |
| CGTPTYLAPEV [CHEK2_Y390] | 0.639 |
| QYNMQYSSSAA [ERBB2IP_Y981_I979M] | 0.859 |
| GGRIDYIAGLD [APRT_Y60] | 0.422 |
| RDHFGYRQSVT [CD55_Y245_YF] | 0.626 |
| YQLENYCNGGG [INS_Y108] | 0.455 |

system: c-Abl (mouse); experiment: as above

| Sequence | phosphorylation enrichment |
| --- | --- |
| RHPEVYHHLGI [NVL_Y290_V295I] | 0.731 |
| IQKKFYRAILE [CHD7_Y1218_YF] | 0.51 |
| KNRDVYSSDFF [USP24_Y2134_YF] | 0.752 |
| KQRKEYMHRRQ [IQGAP2_Y710] | 0.649 |
| NTYENYWPFYQ [GATM_Y103_K102N] | 2.79 |
| ISRLKYPVSQQ [BTK_Y375] | 0.486 |
| PGNIVYSSLCG [BCOR_Y90] | 1.83 |
| PNRILYRDFRQ [MYH7_Y715_G716R] | 0.74 |
| PQIVNYSPDCI [LDHB_Y128_K127N] | 0.216 |
| GNLLIYTEFGN [HGD_Y166_K171N] | 2.23 |
| LIGRRCDDPEV [HSPA9_Y128_Y128C] | 1 |
| DRSSLYLVAGP [KIAA1614_Y1083_N1078D] | 0.652 |
| NTILLYHIMAW [GPR143_Y157_S152N] | 1.25 |
| PHQTIYGALMI [FGF23_Y70_S71G] | 1.36 |
| IHFAIYFLKYS [ARMC9_Y107_L108F] | 1.09 |
| EQKKYYNAVKK [SCN5A_Y1495_M1498V] | 0.511 |
| NIWDSYTTNKV [GNB1_Y85_I80N] | 0.656 |
| PQAVTYATVKH [LILRB4_Y360_K362T] | 0.856 |
| KPGVNYFFQVS | 0.801 |
| ISDNAYQFMLT [MYH7_Y162_YF] | 1.09 |
| LFVDVYGPSVP [NUBPL_Y109_D105Y_YF] | 0.717 |
| KNEVLYDEENH [ARFGEF1_Y314_G316E] | 0.997 |
| RESFKYLPSSL [CXXC1_Y218_F219L_YF] | 0.567 |
| HCEDGYPGGSD [CTNND1_Y221_Y217C] | 1.35 |
| CGTPTYLAPEV [CHEK2_Y390] | 7.74 |
| QYNMQYSSSAA [ERBB2IP_Y981_I979M] | 1.09 |
| GGRIDYIAGLD [APRT_Y60] | 0.582 |
| RDHFGYRQSVT [CD55_Y245_YF] | 0.538 |
| YQLENYCNGGG [INS_Y108] | 0.473 |

system: Fer (mouse); experiment: as above

| Sequence | phosphorylation enrichment |
| --- | --- |
| RHPEVYHHLGI [NVL_Y290_V295I] | 0.641 |
| IQKKFYRAILE [CHD7_Y1218_YF] | 0.398 |
| KNRDVYSSDFF [USP24_Y2134_YF] | 0.429 |
| KQRKEYMHRRQ [IQGAP2_Y710] | 0.437 |
| NTYENYWPFYQ [GATM_Y103_K102N] | 8.56 |
| ISRLKYPVSQQ [BTK_Y375] | 0.318 |
| PGNIVYSSLCG [BCOR_Y90] | 1.18 |
| PNRILYRDFRQ [MYH7_Y715_G716R] | 0.373 |
| PQIVNYSPDCI [LDHB_Y128_K127N] | 0.83 |
| GNLLIYTEFGN [HGD_Y166_K171N] | 0.775 |
| LIGRRCDDPEV [HSPA9_Y128_Y128C] | 0.666 |
| DRSSLYLVAGP [KIAA1614_Y1083_N1078D] | 0.615 |
| NTILLYHIMAW [GPR143_Y157_S152N] | 0.89 |
| PHQTIYGALMI [FGF23_Y70_S71G] | 3.41 |
| IHFAIYFLKYS [ARMC9_Y107_L108F] | 0.586 |
| EQKKYYNAVKK [SCN5A_Y1495_M1498V] | 0.414 |
| NIWDSYTTNKV [GNB1_Y85_I80N] | 0.414 |
| PQAVTYATVKH [LILRB4_Y360_K362T] | 0.624 |
| KPGVNYFFQVS | 0.582 |
| ISDNAYQFMLT [MYH7_Y162_YF] | 5.75 |
| LFVDVYGPSVP [NUBPL_Y109_D105Y_YF] | 0.748 |
| KNEVLYDEENH [ARFGEF1_Y314_G316E] | 0.5 |
| RESFKYLPSSL [CXXC1_Y218_F219L_YF] | 0.347 |
| HCEDGYPGGSD [CTNND1_Y221_Y217C] | 0.672 |
| CGTPTYLAPEV [CHEK2_Y390] | 0.564 |
| QYNMQYSSSAA [ERBB2IP_Y981_I979M] | 0.872 |
| GGRIDYIAGLD [APRT_Y60] | 0.521 |
| RDHFGYRQSVT [CD55_Y245_YF] | 0.427 |
| YQLENYCNGGG [INS_Y108] | 0.55 |

target: FGFR3 (UniProt P22607); experiment: as above
Sequence (P22607 whole entry, looked up): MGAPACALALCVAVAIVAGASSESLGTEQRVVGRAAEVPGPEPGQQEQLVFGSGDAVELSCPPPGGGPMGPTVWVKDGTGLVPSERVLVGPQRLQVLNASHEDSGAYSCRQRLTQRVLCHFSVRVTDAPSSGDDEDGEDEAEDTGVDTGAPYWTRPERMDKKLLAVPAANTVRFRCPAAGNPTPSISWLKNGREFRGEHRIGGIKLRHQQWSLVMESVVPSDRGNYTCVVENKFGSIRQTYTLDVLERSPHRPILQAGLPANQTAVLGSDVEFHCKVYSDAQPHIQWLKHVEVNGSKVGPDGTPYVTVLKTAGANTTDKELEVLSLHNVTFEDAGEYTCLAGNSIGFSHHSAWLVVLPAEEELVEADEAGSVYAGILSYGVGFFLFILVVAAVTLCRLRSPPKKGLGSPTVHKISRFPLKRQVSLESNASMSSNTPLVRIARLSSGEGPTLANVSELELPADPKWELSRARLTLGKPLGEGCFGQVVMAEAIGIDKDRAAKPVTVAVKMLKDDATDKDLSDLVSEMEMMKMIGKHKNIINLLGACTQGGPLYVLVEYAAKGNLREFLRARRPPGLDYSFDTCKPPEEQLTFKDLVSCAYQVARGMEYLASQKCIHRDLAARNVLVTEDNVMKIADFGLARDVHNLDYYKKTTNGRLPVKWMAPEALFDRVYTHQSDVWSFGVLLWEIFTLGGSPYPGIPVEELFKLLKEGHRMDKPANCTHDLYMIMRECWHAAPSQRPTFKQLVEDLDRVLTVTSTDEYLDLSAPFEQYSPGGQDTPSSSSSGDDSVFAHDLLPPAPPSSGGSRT

| Sequence | phosphorylation enrichment |
| --- | --- |
| RHPEVYHHLGI [NVL_Y290_V295I] | 0.999 |
| IQKKFYRAILE [CHD7_Y1218_YF] | 0.46 |
| KNRDVYSSDFF [USP24_Y2134_YF] | 0.544 |
| KQRKEYMHRRQ [IQGAP2_Y710] | 0.519 |
| NTYENYWPFYQ [GATM_Y103_K102N] | 12.4 |
| ISRLKYPVSQQ [BTK_Y375] | 0.399 |
| PGNIVYSSLCG [BCOR_Y90] | 1.02 |
| PNRILYRDFRQ [MYH7_Y715_G716R] | 0.573 |
| PQIVNYSPDCI [LDHB_Y128_K127N] | 0.939 |
| GNLLIYTEFGN [HGD_Y166_K171N] | 0.903 |
| LIGRRCDDPEV [HSPA9_Y128_Y128C] | 1.03 |
| DRSSLYLVAGP [KIAA1614_Y1083_N1078D] | 0.665 |
| NTILLYHIMAW [GPR143_Y157_S152N] | 3.15 |
| PHQTIYGALMI [FGF23_Y70_S71G] | 0.838 |
| IHFAIYFLKYS [ARMC9_Y107_L108F] | 1.01 |
| EQKKYYNAVKK [SCN5A_Y1495_M1498V] | 0.466 |
| NIWDSYTTNKV [GNB1_Y85_I80N] | 0.658 |
| PQAVTYATVKH [LILRB4_Y360_K362T] | 0.607 |
| KPGVNYFFQVS | 1.09 |
| ISDNAYQFMLT [MYH7_Y162_YF] | 1.51 |
| LFVDVYGPSVP [NUBPL_Y109_D105Y_YF] | 0.709 |
| KNEVLYDEENH [ARFGEF1_Y314_G316E] | 0.671 |
| RESFKYLPSSL [CXXC1_Y218_F219L_YF] | 0.431 |
| HCEDGYPGGSD [CTNND1_Y221_Y217C] | 1.15 |
| CGTPTYLAPEV [CHEK2_Y390] | 1.04 |
| QYNMQYSSSAA [ERBB2IP_Y981_I979M] | 0.655 |
| GGRIDYIAGLD [APRT_Y60] | 0.545 |
| RDHFGYRQSVT [CD55_Y245_YF] | 0.791 |
| YQLENYCNGGG [INS_Y108] | 0.477 |
